From paper PMC10641069, “Intra- and inter-molecular regulation by intrinsically-disordered regions governs PUF protein RNA binding” (Nature Communications, 2023) come the findings set out here.

B1: LST-1 B peptide (LST-1 residues 67-98) (peptide, UniProt P91820 67-98, looked up)
chain: SSSPQQRSGLRSQKLHLTYIEKNKRVRAMIPQ
notes: The tag was cleaved with Ulp1 protease; also called LST-1^67–98; source: E. coli, purified (Ni-NTA, heparin, Superdex 75); not shown: His6-SUMO, N-terminal, cleaved
B2: FBF-2 RBD + CT (FBF-2 residues 164-632) (domain or fragment, C. elegans, UniProt Q09312 164-632, looked up)
chain: SNNVLPTWSLDSNGEMRSRLSLSEVLDSGDLMKFAVDKTGCQFLEKAVKGSLTSYQKFQLFEQVIGRKDDFLKLSTNIFGNYLVQSVIGISLATNDDGYTKRQEKLKNFISSQMTDMCLDKFACRVIQSSLQNMDLSLACKLVQALPRDARLIAICVDQNANHVIQKVVAVIPLKNWEFIVDFVATPEHLRQICSDKYGCRVVQTIIEKLTADSMNVDLTSAAQNLRERALQRLMTSVTNRCQELATNEYANYIIQHIVSNDDLAVYRECIIEKCLMRNLLSLSQEKFASHVVEKAFLHAPLELLAEMMDEIFDGYIPHPDTGKDALDIMMFHQFGNYVVQCMLTICCDAVSGRRQTKEGGYDHAISFQDWLKKLHSRVTKERHRLSRFSSGKKMIETLANLRSTHPIYELQSSGHDSFKTDYFSTASEHDGPELEKNGIEEGSLMLEPRSNKSSVSVKFSSSGSHGDD
notes: The tag was cleaved with Ulp1 protease; also called FBF-2^164–632; wild type RBD + CT; source: E. coli BL21-CodonPlus (DE3)-RIL, purified (Ni-NTA, heparin, Superdex 75); not shown: His6-SUMO, N-terminal, cleaved
B3: FBF-2 CT peptide (FBF-2 residues 601-632) (peptide, UniProt Q09312 601-632, looked up)
chain: NGIEEGSLMLEPRSNKSSVSVKFSSSGSHGDD
notes: holds the PIM SLMLEPR (607-613); The tag was cleaved with Ulp1 protease; also called FBF-2^601–632; source: E. coli BL21-CodonPlus (DE3)-RIL, purified (Ni-NTA, HiTrap Q flow-through, Superdex 75); not shown: His6-SUMO, N-terminal, cleaved

Where a chain is given by its changes, count along the chain named. Where “and” joins values, the source holds several entries; their conditions need not be identical. Identical values can stand only once.

In one data set the target is T1, FBF-2 RBD+CT L610A (Caenorhabditis elegans, UniProt Q09312 164-632, L610A).
T1 sequence: B2 chain with L447A
The data set can be described thus: SPR; kon 15.5e4 M-1 s-1, koff 1.36e-3 s-1; EMSA: FBF-2 in 20 mM HEPES pH 7.4, 150 mM NaCl, 0.5 mM TCEP mixed 1:1 with 5 nM final RNA in 10 mM HEPES pH 7.4, 0.01% Tween 20, 0.1 mg/ml BSA, 0.1 mg/ml yeast. The settings on record: protein: recombinant; tags: none (His6-SUMO removed with Ulp1); label: 3'-biotin. (In general: SPR reads the build-up and loss of mass on a sensor chip optically.)

The target of a further data set is T2, FBF-2 RBD+CT Loop6A (Caenorhabditis elegans, UniProt Q09312 164-632, E592A;D594A;E597A;E599A;E604A;E605A).
T2 sequence: B2 chain with E429A, D431A, E434A, E436A, E441A, E442A
The data set can be described thus: SPR; kon 10.9e4 M-1 s-1, koff 0.94e-3 s-1; EMSA: FBF-2 in 20 mM HEPES pH 7.4, 150 mM NaCl, 0.5 mM TCEP mixed 1:1 with 5 nM final RNA in 10 mM HEPES pH 7.4, 0.01% Tween 20, 0.1 mg/ml BSA, 0.1 mg/ml yeast. As to conditions: protein: recombinant; tags: none (His6-SUMO removed with Ulp1); label: 3'-biotin.

The target of a further data set is T3, FBF-2 RBD (Caenorhabditis elegans, UniProt Q09312 164-575).
T3 sequence: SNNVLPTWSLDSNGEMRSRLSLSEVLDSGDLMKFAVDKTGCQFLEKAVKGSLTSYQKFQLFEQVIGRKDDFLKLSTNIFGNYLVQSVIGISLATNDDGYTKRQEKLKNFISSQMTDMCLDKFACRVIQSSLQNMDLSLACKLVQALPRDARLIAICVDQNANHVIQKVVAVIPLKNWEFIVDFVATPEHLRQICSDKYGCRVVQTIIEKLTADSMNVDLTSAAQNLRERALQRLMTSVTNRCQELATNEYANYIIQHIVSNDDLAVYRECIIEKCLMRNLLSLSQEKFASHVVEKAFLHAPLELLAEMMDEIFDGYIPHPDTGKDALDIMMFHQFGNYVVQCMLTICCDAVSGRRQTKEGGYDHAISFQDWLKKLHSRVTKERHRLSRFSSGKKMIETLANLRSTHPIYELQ
The data set can be described thus: SPR; kon 13.6e4 M-1 s-1, koff 0.86e-3 s-1; EMSA: FBF-2 in 20 mM HEPES pH 7.4, 150 mM NaCl, 0.5 mM TCEP mixed 1:1 with 5 nM final RNA in 10 mM HEPES pH 7.4, 0.01% Tween 20, 0.1 mg/ml BSA, 0.1 mg/ml yeast. The settings on record: protein: recombinant; tags: none (His6-SUMO removed with TEV protease); label: 3'-biotin.

In another data set the target is T4, FBF-2 RBD+CT (Caenorhabditis elegans, UniProt Q09312 164-632).
T4 sequence: B2 chain
In words: SPR; kon 7.1e4 M-1 s-1, koff 4.42e-3 s-1; EMSA: FBF-2 in 20 mM HEPES pH 7.4, 150 mM NaCl, 0.5 mM TCEP mixed 1:1 with 5 nM final RNA in 10 mM HEPES pH 7.4, 0.01% Tween 20, 0.1 mg/ml BSA, 0.1 mg/ml yeast. As to conditions: protein: recombinant; tags: none (His6-SUMO removed with Ulp1); label: 3'-biotin.

For another data set, the target named is T5, FBF-2 RBD+CT Y479A (Caenorhabditis elegans, UniProt Q09312 164-632, Y479A).
T5 sequence: B2 chain with Y316A
In words: SPR; kon 10.2e4 M-1 s-1, koff 1.18e-3 s-1; EMSA: FBF-2 in 20 mM HEPES pH 7.4, 150 mM NaCl, 0.5 mM TCEP mixed 1:1 with 5 nM final RNA in 10 mM HEPES pH 7.4, 0.01% Tween 20, 0.1 mg/ml BSA, 0.1 mg/ml yeast. The settings on record: protein: recombinant; tags: none (His6-SUMO removed with Ulp1); label: 3'-biotin.

The target in data set [1] is B2. The data set can be described thus: cell-based or functional assay.
Data set [2] addresses T6, FBF-2 RBD (FBF-2 residues 164-575) (C. elegans, UniProt Q09312 164-575).
T6 chain: T3 sequence
In words: ITC. On the technique in general: Isothermal titration calorimetry measures the heat released or taken up as one component is titrated into another.

The target of data set [3] is T7, FBF-2 RBD + CT (FBF-2 residues 164-632) (C. elegans, UniProt Q09312 164-632).
T7 chain: B2 chain
In words: ITC.

Data set [4] addresses T8, FBF-2 RBD + CT Loop6A (C. elegans, UniProt Q09312 164-632, E592A | D594A | E597A | E599A | E604A | E605A).
T8 sequence: B2 chain with E429A, D431A, E434A, E436A, E441A, E442A
In words: ITC.

For data set [5], the target named is T9, FBF-2 RBD + CT L610A (C. elegans, UniProt Q09312 164-632, L610A).
T9 sequence: B2 chain with L447A
In words: ITC.

Data set [6] deals with T6, FBF-2 RBD (FBF-2 residues 164-575). In words: ITC.
The target of data set [7] is B2. In words: ITC; peptide (100–400 µM) titrated from the syringe into the cell containing FBF-2 (10–30 µM); 20 °C; 20 mM HEPES pH 7.4, 150 mM NaCl, 0.5 mM TCEP; no RNA; one-site model; mean of two replicates. As to conditions: both partners purified.
The target in data set [8] is T10, FBF-2 RBD + CT Loop6A (C. elegans, UniProt Q09312 164-632, E592A | D594A | E597A | E599A | E604A | E605A).
T10 construct: source: E. coli, expressed and purified like wild type proteins; not shown: His6-SUMO, N-terminal, cleaved
T10 sequence (looked up): B2 chain with E429A, D431A, E434A, E436A, E441A, E442A
Described as above. The settings on record: both partners purified.

Data set [9] addresses T11, FBF-2 RBD + CT L610A (C. elegans, UniProt Q09312 164-632, L610A).
T11 construct: source: E. coli, expressed and purified like wild type proteins; not shown: His6-SUMO, N-terminal, cleaved
T11 sequence (looked up): B2 chain with L447A
The data set is described as above. The settings on record: both partners purified.

Data set [10] deals with the molecule itself. In words: crystal structure; FBF-2 RBD + CT with cFBE RNA (5′-CUGUGAAUG-3′), 2.1 Å; CT residues 607-613 seen bound to the RBD of the same construct (intramolecular by the paper's words).
Data set [11] has as its target T12, FBF-2 RBD (FBF-2 residues 164-575) (C. elegans, UniProt Q09312 164-575).
T12 construct: The tag was cleaved with TEV protease; also called FBF-2^164–575; RBD alone; source: E. coli, purified (Ni-NTA, heparin, Superdex 75); not shown: His6-SUMO, N-terminal, cleaved
T12 sequence (looked up): T3 sequence
The data set can be described thus: ITC; peptide (100–400 µM) titrated from the syringe into the cell containing FBF-2 (10–30 µM); 20 °C; 20 mM HEPES pH 7.4, 150 mM NaCl, 0.5 mM TCEP; no RNA; one-site model; mean of two replicates. The settings on record: both partners purified.

One may read the Kd as the free concentration of one partner at which half of the binding sites on the other are occupied at equilibrium, for simple one-to-one binding. With AUCAUGUGCCAUACA (ssRNA) [gld-1 FBEa RNA (SPR)], the Kd amounted to 9.4 ± 3.6 nM with FBF-2 RBD+CT L610A; 9.5 ± 4.2 nM in the data set with FBF-2 RBD+CT Loop6A; 6.6 ± 2.3 nM in the data set with FBF-2 RBD; 65.1 ± 21.1 nM in the data set with FBF-2 RBD+CT; 12.9 ± 6.4 nM with FBF-2 RBD+CT Y479A.
Take B1: the “RNA-binding affinity of FBF-2 RBD + CT for gld-1 FBEa RNA by EMSA in the presence of 50 µM LST-1 B” value in data set [1] turned out to be 5 fold. Besides, the Kd was 50 nM in data set [2]; 2100 nM and 3300 nM in data set [3]; 1300 nM and 1100 nM in the data set with FBF-2 RBD + CT Loop6A [4]; 46 nM and 77 nM in the data set with FBF-2 RBD + CT L610A [5]; 46 nM and 45 nM in data set [6]; 2700 nM in data set [7]. Further, in the data set with FBF-2 RBD + CT L610A [9], the Kd turned out to be 60 nM. In the data set with FBF-2 RBD + CT Loop6A [8], the binding result was “binds”.
Turning to B2, in [10], the binding result was “binds”.
In data set [11], B3 returned a Kd of 35000 nM.
